# Assay: yeast display, Sf9 membrane polyspecificity reagent, FACS + sequencing; frameworks hold sequencing errors
# In short: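 After 36–48 hours of galactose induction, yeast (Saccharomyces cerevisiae BJ5465) displaying a synthetic nanobody library were stained at 4 °C for 1 hour with 10% biotinylated, detergent-solubilized Sf9 membrane reagent. Streptavidin microbeads enriched the stained cells before FACS sorting into low and high (top ~1%) gates on anti-HA and streptavidin fluorescence. Each clone's polyreactivity label reflects its gate of origin.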
row,Sequence,polyreactivity (PSR sort gate)
1,QVQLVESGGGLVQAGGSLRLICAASGIIFDPNAMGWYRQAPGKERELVAAITHTGSTSYADSVKGRFTISRDNAKNTVYLQMNRLNPEDTAVYYCAAGTWVRAWYRYWYDFEYWGQGTQVTVSS,high polyreactivity
2,QVQLVESGGGLVQAGGSLRLICAASGIIFFDYAMGWYRQAPGKEREMVAAISSGGGNTYYADSVKGRFTISRDNAKNTVYLQMNSLKPEDTAVYYCAAEPYIYGEQGAYDYWGQGTQVTVSS,low polyreactivity
3,QVQLVESGGGLVQAGGSLRLICAASGIIFNYNAMGWYRQAPGNERELVATISSGDSTNYADSVKGRFTISRDNAKNTVYLQMNSLKPEDTAVYYCAAESPSVFEGYAQLYIILEDYWGQGTQVTVSS,low polyreactivity
4,QVQLVESGGGLVQAGGSLRLICAASGIIFPFYVMGWYRQAPGKERELVAAITWSGDGTYYADSVKGRFTISRDNAKNTVYLQMNSLKPEDTAVYYCAAQWYYGGVKYYYWGQGTIVTVSS,low polyreactivity
5,QVQLVESGGGLVQAGGSLRLICAASGIILAYAMGWYRQAPGKERELVAAISGRAGSTYYADSVKGRFTISRDNAKNTVYLHMNSLTPEDTAVYYCAKRISYLPVEMDYWGQGTQVTVSS,low polyreactivity
6,QVQLVESGGGLVQAGGSLRLICAASGIILGHKAMGWYRQAPGKERELVATITTRGGSTYYADSVKGRFTISRDNAKNTVYLQMNSLKPEDTAVFYCAARPYKSLHYWYDYWGQGTQVTVSS,low polyreactivity
7,QVQLVESGGGLVQAGGSLRLICAASGITFPHYAMGWYRQAPGKEREYVAAISKRAGSTYYADSVKGRFTISLDNAKNTVYLQMNSLKPEDTSVYYCAADDRYYSPYGFKYWGQCTQVTVSS,high polyreactivity
8,QVQLVESGGGLVQAGGSLRLICAASGITFPINTKGWYRQAPGKERELVAGIDWTGGSTYYADSVKGRFTISRDNAKNTVYLQMNSLKPEDTAVYYCAAEFFREGSPRAGSKMDYWGQGTQVTVSS,low polyreactivity
9,QVQLVESGGGLVQAGGSLRLICAASGITFSVYTMGWYRQAPGKERELVAAIDSDGITNYADSVKGRFTISRDNAKNTVYLQLNSLKPEDTAVYYCAKQSGRADGVSGFDYWGQGTQVTVSS,low polyreactivity
10,QVQLVESGGGLVQAGGSLRLICAASGITFYIYGMGWYRQAPGKERELVAAITSGGSTYYADSVKGRFTISRDNAKNTVYLQMNSLKPEDTAVYYCAAGRYYGKGYYYWGQGTQVTVSS,high polyreactivity
11,QVQLVESGGGLVQAGGSLRLICAASGITFYRYDMGWYRQAPGKERELVAAISTRGGSTYYADSVKGRFTISRDNAKNTVYLQMNSLKPEDTAVYYCAKERVGTSLPFKDYYWGQGTQVTVSS,low polyreactivity
12,QVQLVESGGGLVQAGGSLRLICAASGITTRSNAMGWYRQAPGKERDFVAAITSRGGSTYYAYSVKGRFTISRDNAKNTVYLQMNSLKPEDTAVYYCAKGKYPDKKSRHVTLYDYWGQGTQVTVSS,high polyreactivity
13,QVQLVESGGGLVQAGGSLRLICAASGITYRYAMGWYRQAPGKERELVAAITSSGASTYYADSVKGRFTISRDNAKNTVYLQMNSLKPEDTAVYYCATPLRKVYGGYVYWGQGTQVTVSS,low polyreactivity
14,QVQLVESGGGLVQAGGSLRLICAASGLIFGKYAMGWYRQAPGKEREFVAAITRSGGSTYYADSVKGRFTISRDNAKNTVYLQMNSLKPEDTAVYYCAAYSLKYYNGYDYWGQGTQVTVSS,high polyreactivity
15,QVQLVESGGGLVQAGGSLRLICAASGLIFYRNAMGWYRQAPGKERELVAAISSGGRTYYADSVKGRFTISRDNEKNTVYLQMNSLKPEDTAVYYCAASYWKPHRESGYDYWGQGTQVTVSS,high polyreactivity
16,QVQLVESGGGLVQAGGSLRLICAASGLTFDTYSMGWYRQAPGKERELVAAISIGGRTNYADSVKGRFTISRDNAKNTVYLQMNSLKPEDTAVYYCARVFRYNSYYLPYDYWGQGTQVTVSS,high polyreactivity
17,QVQLVESGGGLVQAGGSLRLICAASGLTFFSYAMGWYRQATGKEREFVAAITRRGGRTYYADSVKGRFTISRENANNTVYLQMNSLKPEDTAVYYCNAVPVLISVYRMEYWGQGTQVNVSS,high polyreactivity
18,QVQLVESGGGLVQAGGSLRLICAASGLTFLYYTMVWYRQEPGNERELVAAITSGASTNYADSVKGRFTISRDNAKNTVYLQMNSLIPEDTAVYYCAARYVGPFAWYSGYDYWGQGTQVTVSS,low polyreactivity
19,QVQLVESGGGLVQAGGSLRLICAASGLTFVHNAMGWYRQAPGKERELVAAISSSGGRTYYADSVKARFTISRDNAKNTVYLQMNSLKPEDTAVYYCNKAAFNYYLYGYWGQGTQVTVSS,high polyreactivity
20,QVQLVESGGGLVQAGGSLRLICAASGLTFVPNAMGWYRQAPGKERELVAGITSAGSTYYADSVKGRFTISRDNAKNTVYLQMNSLKPEDTAVYYCAKQFYRGFRYGYWGQGTQVTVSS,high polyreactivity
21,QVQLVESGGGLVQAGGSLRLICAASGNSYIYNAMGSYRQAPGKEMELVAAISSRGGTTSDAVSVKGRFTISRDHAKNTVYFQMNSLKPEDTAVYYCAARQVVPSYRYPYGYWGQGTQVTVSS,high polyreactivity
22,QVQLVESGGGLVQAGGSLRLICAASGNTFVRYYMGWYRQAPGKEREFVAAITASGGSTFADSVKGRFTISRDNAKNTVYLQMNSLKPEDTAVYYCNAGNSSTGVDRYDYWGQGTQVSVSS,low polyreactivity

row,Sequence,polyreactivity (PSR sort gate)
1,QVQLVESGGGLVQAGGSLRLICAASGNTLIVNAMGWYRQAPGKERELVAAITRDGRTNYADSVKGRFTISRDNAKNTVYLQMNSLKPEDTAVYYCAARLAQSTGYGYWGQGTQVTVSS,low polyreactivity
2,QVQLVESGGGLVQAGGSLRLICAASGRIFFTYAMGWYIQAPGKERQLVASITGSGGSTYYADSVKGRFTISRDNAKNTVYLQMNSLKPEDTAVYYCAAALFRRQLYRKFYYWGQGTQVTVSS,low polyreactivity
3,QVQLVESGGGLVQAGGSLRLICAASGRIFGLNAMGWYRQAPGKEREFVAAITWRGGRTYYADSVKGRFTISRDNAKNTVYLQMNSLKPEDTAVYYCAADGGSTLDYYWGQGTQVTVSS,low polyreactivity
4,QVQLVESGGGLVQAGGSLRLICAASGRIFGRNAMGWYRQAPGKERELVAVITWRGGSTYYADSVKGRFTISRDNAKNTVYLQMNSLKPEDTAVYYCAADTSRYYLPRYRTDYWGQGTQVTVSS,high polyreactivity
5,QVQLVESGGGLVQAGGSLRLICAASGRIFRANAMGWYRQAPGQERELVATITISGGSTYYADSVKGRFTISRDNAKNTVYLQMNCLKPEDTAVYYCNAGHTLTFVPRPAYYSMYYWGQGTQVTVSS,low polyreactivity
6,QVQLVESGGGLVQAGGSLRLICAASGRIFTSNAMGWYRQAPGKERELVAAISKSGGSTYYADSVKGRFTISRDNAKNTVYLQMNSLKPEDTAVYYCAAVPWRGFDYWGQGTQVTVSS,high polyreactivity
7,QVQLVESGGGLVQAGGSLRLICAASGRIFVKYAIGWYRQAPGKERELVASITSGGRTNYADSVKGRFTISPDIAKNTVYLQMNSLKPEDTAVYYCAAVWRTASTQYYYWGQGTQVTVSS,high polyreactivity
8,QVQLVESGGGLVQAGGSLRLICAASGRIFYINAMGWYRQAPGKERELVASITGSGGRTYYADSVKGRFTISRDNAKNTVYLQMNSLKPEDTAVYYCNADLYVGYLYYLYDYWGQGTQVTVSS,low polyreactivity
9,QVQLVESGGGLVQAGGSLRLICAASGRIFYRNAMGWYRQAPGKERELVAAISGATSTYYADSVKGRFTFSRDNAKNTVYLQMNSLKREDTAVYYCAAKIIWYTIRHGSAGFNYWGQGTQVTVSS,high polyreactivity
10,QVQLVESGGGLVQAGGSLRLICAASGRIFYSYAMGWYRQAPGKERELVAAITVSGGSTFYADSVKGRFTISRDNAKNTVYLQMNSLKPEDTAVYYCAATRFSQYDWGQGTQVTVSS,high polyreactivity
11,QVQLVESGGGLVQAGGSLRLICAASGRIIYCNGMGWYRQAPGKERELVAAISSGGSTYYADSVKGRFTISRDNAKNTVYLQMNCLKPEDTAVYYCAADIDYESDRYDYWGQGTQVTVSS,low polyreactivity
12,QVQLVESGGGLVQAGGSLRLICAASGRILYKNSMGWYRQAPAKEMQLVAAISSTAGYTYYADSLKGRFTISRDNAKNTVYLQMNSLKPEDTAVYYCAARRSGVKRRYDYWGQGTQVTVSS,low polyreactivity
13,QVQLVESGGGLVQAGGSLRLICAASGRISLSNAMGWYRHAPGKEREFVAAITKRSDRTYYADSVKGRFTISRDNAKNTVYLQMNSLKPEETAVYYCAAKPLFGTRDDYWGQGTQVTVSS,low polyreactivity
14,QVQLVESGGGLVQAGGSLRLICAASGRNCVYYAMGWYRQAPGKERELVAAITSGDSTYYADSVKGRFTISRDNAKNTVYLQMNSLKPEDTAVYYCAADHYYGSESGGFVIYYYWGQGTQVTVSS,low polyreactivity
15,QVQLVESGGGLVQAGGSLRLICAASGRTFAGNAMGWYRQAPGKERELVAAITWSGGSTYYADSVKGRFTISRDNAKNTVYLQMNSLKPEDTAVYYCAADSQPPHELYESIEHESWGQGTQVTVSS,low polyreactivity
16,QVQLVESGGGLVQAGGSLRLICAASGRTFATYAMGWYRQAPGKERELVAAISNSGGRTNYADSVKGRFTISRDNAKNTVYLLMNSLKPEDTAVFYCATKAYTSGRYYWGQGTQVTVSS,high polyreactivity
17,QVQLVESGGGLVQAGGSLRLICAASGRTFGPYAMGWYRQAPGKEREFVAAITWRGGRTNYADSVKGRFTISRDNAKNTVYLQMNSLKPEDTAVYYCNAVISPHQWIRGGDSWGQGTQVTVSS,low polyreactivity
18,QVQLVESGGGLVQAGGSLRLICAASGRTFGYNAMGWYRQAPGKEREFVAAISWSGGRTYYADSVKGRFTISRDNAKNTVYLQMNSLKPEHSAVYYCAAGFGDGPGNGYYTRYSWDDDYWGQGTQVTVSS,low polyreactivity
19,QVQLVESGGGLVQAGGSLRLICAASGRTFKYYAMGWYRQAPGKERELVATITWSGTSTNYADSVKRRFTISRDIGKNSVYLQMNSLKPEDSAVYYCAARSKRRNYDYWGQGTQVTVSS,high polyreactivity
20,QVQLVESGGGLVQAGGSLRLICAASGRTFNSNVMGRSRQAPGKERELVAAISGSSGSTRYADSVKGRFTISRDNAKNTVYLQMNSLKPEDTEVYYCAAYPLYRRRWTGDYWGQGTQVTVSS,high polyreactivity
21,QVQLVESGGGLVQAGGSLRLICAASGRTFRYNAMGWYSQPHRKERELFAAINGGGSTYYADTVKGRFTISRDNAKNTVFLQMKSLKPEDTAVYYCAAANWRRNDYRYRFDYWGQGTQVTVSS,high polyreactivity

# Source: the nanobody polyreactivity screen of Harvey et al. (2022)
